A short description of the series: yeast display, Sf9 membrane polyspecificity reagent, FACS + sequencing; frameworks hold sequencing errors. In short, it runs like this: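 Synthetic nanobody libraries on Saccharomyces cerevisiae BJ5465 were galactose-induced for 36–48 hours, stained 1 hour at 4 °C with 10% biotinylated, detergent-solubilized Sf9 membrane reagent and enriched on streptavidin microbeads. FACS then separated cells into low and high (top ~1%) gates by anti-HA (expression) and streptavidin (reagent binding) fluorescence. Genes were colony-PCR amplified, MiSeq 2 × 250 sequenced and CDR-length filtered. A clone's polyreactivity label is that of its gate of origin.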
Regarding “QVQLVESGAGLVQAGVSLRLSCAASGRTFRSNAMGWYRQAPGKERELVAAISWSGGSTYYADSVKGRFTISRDNAKNTVYLQMNSLKPEDTAVYDCAVGGSGYGRFGGGYARDYWGQGTLVTVSS”, the “polyreactivity (PSR sort gate)” value was “high polyreactivity”.
In the case of “QVQLVESGAGLVQARGSLRISCAASGSIFGRYAMGWYRQAPRKERELVASIYSTGGRTYYADSVKGRFTISRDNAKNTVYLQMNSLKPEDTAVYYCAAKFYEYSTAGTQWIRYYYWGQGTQVTVSS” it was “high polyreactivity”.
As for “QVQLVESGAGLVQARGSLRLSCAASGSIFLSYVMGWYRQAPGKERELVAAISKRGGRTYYADSVKGRFTISRDNAKNTVYLQMNSLKPEDTAVYYCNAVTQRESEEGDYWGQGTQVTVSS”, the “polyreactivity (PSR sort gate)” value is given as “high polyreactivity”.
With “QVQLVESGAGLVQARGSLRLSCAASGYTFLGYAMGWYRQAPGKERELVAAINRSGSSTYYADSVKGRFTISRDNAKNTVYLQMNSLKPEDTAVYYCNARSGNRYGPRYDYWGQGTQVTVSS” the entry was “high polyreactivity”.
In the case of “QVQLVESGAGVGQAGGSLRLSCAASGSIFTPYAMGWYRPAPGKERELVAGITSGGNTNYADSVKGRFTISRDNAKNTVYLQMNSLKPEDTAVYYCAARYIYYYAYGYNYWGQGTKVTVSS” it was “high polyreactivity”; in that of “QVQLVESGAGVVQAGGSLRLSCAASGFTLHSYAMGWYRQAPGKERELVAAITRSGGGTYYADSVKGRFTISRDNAKKTVYLQMNSLKPEDTAVYYCAARFGGQYQHDYWGQGTQVTVSS”, “high polyreactivity”.
With “QVQLVESGARLVQAGGSLRLSCAPSGSIFAYNAMGWYRQAPGKERELVAAITKSGGSTYYADSVKGRFTISRDHAKNTVYLQMNSLKPEDTAVDYCNVVVPHSISSHGDYWGQGTQVTVSS” the entry was “low polyreactivity”; with “QVQLVESGEGLVQAGGRLRLSCAPSGSTFMTYAMGWYRQAPGKERELVAAIRWSGGGTYYADSVKGRFTISRDNAKNTVYLQMNSLKPEDTAVYYGAADHFNYTPGRDYWGQGTQVTVSS”, “low polyreactivity”; with “QVQLVESGEGLVQAGGSLSLSCAASGRIFYAYVMGWYRQAPGKERELVAAIDRRSTYYADSVKRRFTISRDNAKNTVFFQMNSLKPEDTAVYYCAARSTYSYYIRGYWGLGTQVTVSS”, “high polyreactivity”.
On to “QVQLVESGGALLQAGGSLRLSCAASGFIFRYYAMGWYRQAPGKERELVAAISESGASTYYADSVKGRFTISRDNAKNSVYLQMNSLKPEVTAVYYCAAKPRNSGPYYFYDLNYWGQGTQVTVSS”, for which the “polyreactivity (PSR sort gate)” value was “high polyreactivity”.
With “QVQLVESGGALVQAGASLRLSCAASGRTFPLYAMGWYRQAPGKEMELVAAISARGSSTYYADSVKGRFTISRDNAKNTVYLQMNSLKAEDNAVYYCAAKRSYPYGSGYWGQGSQVTVSS” the entry was “high polyreactivity”; with “QVQLVESGGALVQAGCSLRLSCAASGRTFGRNTMGWYRQAPGKERELVAGISRSAGRTYYADSVKGRFTISRDNAKNNVYLQMNSLKAEDTAVYYCAARYQGNYRTDKYDYWGQGTQVTVSS”, “high polyreactivity”.
As to “QVQLVESGGALVQAGGSHRLSCAASGSTFATYAMGWYRQAPGNEREFVAVITRGGRTYYADSVKGRFTISRDNAKITVYLQMNSLKPEDTAVYYCAAGSGNFVTRYRYGYWGQGTQVTVSS”, the “polyreactivity (PSR sort gate)” value is “high polyreactivity”.
For “QVQLVESGGALVQAGGSIRLSCAASGSTFAYYAMGWYRQATGKERELVAAINWRTYYADSVKGRFTISRDNAKNTVYLQMNSLKPEDSAVYYCAAGYYRNKFYYWGQGTQVTVSS”, the “polyreactivity (PSR sort gate)” value was “high polyreactivity”.
With “QVQLVESGGALVQAGGSLRISCAASGFTFHKNAMGWYRQAPGKERELVAAITYRGGSTYYADSVKGRFTISRDNAKNTVYLQMNSLKPEDTSVYYCAAELRPYITYDGPRKKFYFWGQGTQVTVSS” the entry was “high polyreactivity”.
With “QVQLVESGGALVQAGGSLRISCAASGFTLQRNTMGWYRQAPGKDREFVAAISVRGGSTYYADSVKGRFTNSRDTAKNTVYLQMNSLKPEDTAVYYCAAVGRPSQYSYPYGYWGQGTQVTVSS” the entry was “high polyreactivity”; with “QVQLVESGGALVQAGGSLRLSCAASGFIFRYYAMGWYRQAPWKERELVATITGRGGSTYYADSVKGRFTISRDNAMNTVYLQMNSLKPEDTAVYYCAKRGYGRYYAYDYWGQGTQVTVSS”, “high polyreactivity”; with “QVQLVESGGALVQAGGSLRLSCAASGFIICYYAMGSYRQAPGKDRELVAAITSGTSTSYADSVKGRFTISRDNAKNTVYLQMNSLKQEDTAVYYCGADVVRSNFYGTFLYDYDYWGQGTQVTVSS”, “low polyreactivity”.
With “QVQLVESGGALVQAGGSLRLSCAASGFTFFRNAMGWYRQAPGKERELVAAISGSGGSTYYADSVKGRFTISRDNAKNTVYLQMNSLKPEDTAVYYCATYSYPAKVREAYNYWGQGTQVTVSS” the entry was “low polyreactivity”; with “QVQLVESGGALVQAGGSLRLSCAASGFTFNVYAMGWYRPAPGKERELVAAITSSGGSTYYADSVKGRFTISRDNAKNTVYLQMNSLIPDDTAVYYCNVVRDWLLYRGSYIVKFDYWGQGTQVTVSS”, “high polyreactivity”.
Take “QVQLVESGGALVQAGGSLRLSCAASGFTFRSYVMGWYRQAPGKERELVAAISGSGASTYYADSVKGRFTLSRDNAKNTVYLQMNSLKPEDTAVYYCAATSPYKYWYRYNYWGHGTQVTVSS”: the “polyreactivity (PSR sort gate)” value is given as “high polyreactivity”.
With “QVQLVESGGALVQAGGSLRLSCAASGFTFTINDMGWYRQAPGKERELVATINDSAGSTYYADSVKGRFTISRDNAKNTVYLQMNSQKPDATAVYYCNAYKATRWFEYVYWGQGTQVTVSS” the entry was “low polyreactivity”; with “QVQLVESGGALVQAGGSLRLSCAASGIIFWLYDMGWSRQAPGKERELVAVMTWSGDSTYADSVKGRFTISRDNAKNTVYLQMNSLKPEDNAVYYCAAREYYRKPYDHWGQGTQVTVSS”, “high polyreactivity”; with “QVQLVESGGALVQAGGSLRLSCAASGIVFKRYAMGWYRQAPGKEREFVATISYTGGRTYYADSVKGRFTISRDNAKNTVYLQMNSLKPEDTAVYYCATLYRSSKHQPLDYWGQGTQVNVSS”, “high polyreactivity”.
Take “QVQLVESGGALVQAGGSLRLSCAASGRIFRSYVMGWYRQAPGKERELVATITGGGRTNYADSVKGRFTISRDNAKNTVYLQMTSLKPEDTAVYYCAGVYRWWPFHAFDYWGQGTQVTVSS”: the “polyreactivity (PSR sort gate)” value is “high polyreactivity”.
Regarding “QVQLVESGGALVQAGGSLRLSCAASGSIFGEYTMGWYRQAPGKEWELVAAIRSGGDTYYADSVKGRFTLSRDKAKNTVYLQMNSLKPEDTAVYYCNAYWVRHYIMDYWGQGTQVTVSS”, the “polyreactivity (PSR sort gate)” value is given as “low polyreactivity”.
In the case of “QVQLVESGGALVQAGGSLRLSCAASGSIFYTNAMGWYRQAPGKERELVAAIRWSGGRTYYADSVKGRFTISRDNAKNTVYLQMNSLKPEDTAVYYCNKVPRTPIPYKYGDWGQGTHVTVSS” it was “high polyreactivity”; in that of “QVQLVESGGALVQAGGSLRLSCAASGSLFERYAMGWYRQAPVKEREFVATITSGGGRTYYADSVKGRFTISRDNAKNTVYLQMNSLQPEDTAVYYCTAVYRARSYDYWGQGTQVTVSS”, “high polyreactivity”.
In the case of “QVQLVESGGALVQAGGSLRLSCAASGSTFEDYAMRSSRQAPGKARELVAAISHIGGSTYYADSVKGRFTISRDNAKNTVYLQMNSLKPEDTAVYYCAKGVYSDLGYWAQGTQVTVSS” it was “low polyreactivity”; in that of “QVQLVESGGALVQAGGSLRLSCAASGSTFFINAMGWYRQAPGKERELVAAITSTDSTTYADSVKGRFTISRDNAKNTVYLQMNSLKPEDTAVYYCAKESIGQDPVSGAWARHEYDYWGQGTQVTVSS”, “low polyreactivity”.
With “QVQLVESGGALVQAGGSLRLSCAASGSTFRYYAMGWYRQAPGKERELVAAIRWSGDSTYYADSVKGRFTISRDNAKNTVYLQMNSLKPEDTAVYYCAADRQRSHRVGTKGHRVGYWGQGTQVSVSS” the entry was “high polyreactivity”; with “QVQLVESGGALVQAGGSLRLSCAASGSTFVQNAMGWYRQAPGKDRELVAAITIGGGSTYYADSVKGRFTISRDNAKNTVYLQMNSLKPEDTAVYYCAVEVGNPQLAYSYDYWGQGTQVTVSS”, “low polyreactivity”; with “QVQLVESGGALVQAGGSLRLSCAASGSTFYWNTMGWYRQAPGKERELVASITRGGSTYYADSVKGRFTISRDNAKNTVYLQMNSLKPEDSAVYYCNVLAWSYGYRYYSWGQGTQVTVSS”, “high polyreactivity”.
“QVQLVESGGALVQAGGSLRLSCAASGTTFHSYPMGWYRQAPGKERELVAAISNGGRTNYADSVNGRFTISRDNAKNTVYLQMNSLKPVDTAVYYCAVRLYRDSSYYYWGQGTQVTVSS”: the “polyreactivity (PSR sort gate)” value was “low polyreactivity”.
With “QVQLVESGGALVQARGSLRLSCSASGSTFFHNFKGWYRQEPGKERELVAAISGSGTRSYYADSVKGRFTISRDNAKNTVYLQMNSLKPEDTAVYYCNVVPLRVPSYLPKYYYWGQGTQVTVSS”, the “polyreactivity (PSR sort gate)” value is “high polyreactivity”.
With “QVQLVESGGALVQEGGSHRLSCAASRRIFVVYAMGWYRQAPGKERELVAAISKRRGSTYYADSVKGRFTISRYNAKNTVYLQMKSQKPEDTAVYYCAVEGVIWSFWPYEYWGQGTQVTVSS” the entry was “high polyreactivity”; with “QVQLVESGGALVQEGRSLRLSCAASGGTFADYPMGWYRQAPVKERELVAAITNGGSTFYADSVKGRFTSSRDNATNTVYLQMNSLKPDDTAVYYWSAVYLYAYSPYFSAVEMYYWGQGSQVTVSS”, “low polyreactivity”; with “QVQLVESGGCIVQAGGSLRLSCAASGSIFTYNAMGWYRQAPGKERELVAAISASGGRTYYADSVKGRFTISRDNAKNTVYLQMNSLKPEDTAVYYCAARILVYGLRRFDYWGQGTQVNVSS”, “high polyreactivity”.
With “QVQLVESGGCIVQAGGSLRLSSPASGRNFTRYGKGWDRQAPRKERELVAAISKSTGNTYYADCVKGRFTISRDFAKNTVYLQMNSLKPEDTAVYYCAASKNKRPPYDYWGQGTQVNVSS” the entry was “high polyreactivity”; with “QVQLVESGGCLFQEGGSLRLSCSASGRIFNTYAMVWYRQAPGKERELVARISSGGTTYYADSVKGRFTISRDNAKNTVYLQMNSLKPEDTAVYFCNVRAVTPTRSRPFRYDYWGQGTQVTVSS”, “high polyreactivity”.

For the origin of these results see the nanobody polyreactivity screen of Harvey et al. (2022).
